± gives the standard error. For some assays here: This sample holds only a part of the variants without activity.
B1: glmS ribozyme (parent)
chain: AUAAAAGCGCCAGAACUACAGAAAUGUAGUUGACGAGGAGGAGGUUUAUCGAAUUUUCGGCGGAUGCCUCCAAA

Legend:
Conditions in all cases: with glucosamine-6-phosphate
glucosamine-6-phosphate [1] = variants of: B1; test: kcat; higher = faster cleavage; RNA array
In short: (§1)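 Weighted Michaelis–Menten fits across concentrations supplied kcat and KM, based on kobs from one- or two-exponential decay fits to normalised per-tile medians. The data came from barcoded ribozyme variants transcribed in situ by E. coli RNA polymerase on sequenced MiSeq chips and tracked at 37 °C by a hybridised Cy3 probe. Glucosamine-6-phosphate (40 μM to 10 mM) in HEPES/KCl/Mg(OAc)2 buffer was flowed in.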

glucosamine-6-phosphate [2] = variants of: B1; test: self-cleavage kobs at 160 uM GlcN6P; higher = faster cleavage; RNA array
In short: as §1

glucosamine-6-phosphate [3] = variants of: B1; test: self-cleavage kobs at 640 uM GlcN6P; higher = faster cleavage; RNA array
In short: as §1

glucosamine-6-phosphate [4] = variants of: B1; test: self-cleavage kobs at 2500 uM GlcN6P; higher = faster cleavage; RNA array
In short: as §1

glucosamine-6-phosphate [5] = variants of: B1; test: KM; higher = weaker cofactor use; RNA array
In short: as §1

glucosamine-6-phosphate [6] = variants of: B1; test: self-cleavage kobs at 40 uM GlcN6P; higher = faster cleavage; RNA array
In short: as §1

glucosamine-6-phosphate [7] = variants of: B1; test: self-cleavage kobs at 10000 uM GlcN6P; higher = faster cleavage; RNA array
In short: as §1

C50G U54G
kcat (glucosamine-6-phosphate [1]): 4.74e-05 ± 1.5e-05 s⁻¹
self-cleavage kobs at 160 uM GlcN6P (glucosamine-6-phosphate [2]): 7.22e-05 ± 1.2e-05 s⁻¹
self-cleavage kobs at 640 uM GlcN6P (glucosamine-6-phosphate [3]): 4.18e-05 ± 1.1e-05 s⁻¹
self-cleavage kobs at 2500 uM GlcN6P (glucosamine-6-phosphate [4]): 3.85e-05 ± 1.5e-05 s⁻¹

U30A U55A
kcat (glucosamine-6-phosphate [1]): 0.0085 ± 0.0022 s⁻¹
KM (glucosamine-6-phosphate [5]): 1850 ± 740 µM
self-cleavage kobs at 40 uM GlcN6P (glucosamine-6-phosphate [6]): 0.000212 ± 3.2e-05 s⁻¹
self-cleavage kobs at 160 uM GlcN6P (glucosamine-6-phosphate [2]): 0.000501 ± 0.00012 s⁻¹
self-cleavage kobs at 2500 uM GlcN6P (glucosamine-6-phosphate [4]): 0.00803 ± 0.0017 s⁻¹
self-cleavage kobs at 10000 uM GlcN6P (glucosamine-6-phosphate [7]): 0.00686 ± 0.00088 s⁻¹

A6G A15C
kcat (glucosamine-6-phosphate [1]): 7.64e-05 ± 3.5e-06 s⁻¹
KM (glucosamine-6-phosphate [5]): 1700 ± 240 µM
self-cleavage kobs at 40 uM GlcN6P (glucosamine-6-phosphate [6]): < 1e-05 s⁻¹
self-cleavage kobs at 2500 uM GlcN6P (glucosamine-6-phosphate [4]): 4.69e-05 ± 9.3e-06 s⁻¹
self-cleavage kobs at 10000 uM GlcN6P (glucosamine-6-phosphate [7]): 6.45e-05 ± 1.1e-05 s⁻¹

U65A C68G
kcat (glucosamine-6-phosphate [1]): 4.89e-05 ± 9e-06 s⁻¹
self-cleavage kobs at 160 uM GlcN6P (glucosamine-6-phosphate [2]): 8.12e-05 ± 1.8e-05 s⁻¹
self-cleavage kobs at 640 uM GlcN6P (glucosamine-6-phosphate [3]): 6.22e-05 ± 1e-05 s⁻¹
self-cleavage kobs at 2500 uM GlcN6P (glucosamine-6-phosphate [4]): 4.97e-05 ± 1.2e-05 s⁻¹
self-cleavage kobs at 10000 uM GlcN6P (glucosamine-6-phosphate [7]): 3.81e-05 ± 7.3e-06 s⁻¹

G29U C34G
kcat (glucosamine-6-phosphate [1]): < 1e-05 s⁻¹
self-cleavage kobs at 40 uM GlcN6P (glucosamine-6-phosphate [6]): < 1e-05 s⁻¹
self-cleavage kobs at 10000 uM GlcN6P (glucosamine-6-phosphate [7]): < 1e-05 s⁻¹

G13A
kcat (glucosamine-6-phosphate [1]): 0.00142 ± 0.00018 s⁻¹
KM (glucosamine-6-phosphate [5]): 4830 ± 750 µM
self-cleavage kobs at 40 uM GlcN6P (glucosamine-6-phosphate [6]): 1.56e-05 ± 1.7e-06 s⁻¹
self-cleavage kobs at 160 uM GlcN6P (glucosamine-6-phosphate [2]): 4.65e-05 ± 1.7e-06 s⁻¹
self-cleavage kobs at 640 uM GlcN6P (glucosamine-6-phosphate [3]): 0.000162 ± 3.8e-06 s⁻¹
self-cleavage kobs at 2500 uM GlcN6P (glucosamine-6-phosphate [4]): 0.00057 ± 3.3e-05 s⁻¹
self-cleavage kobs at 10000 uM GlcN6P (glucosamine-6-phosphate [7]): 0.000945 ± 3.6e-05 s⁻¹

G13A U45C
kcat (glucosamine-6-phosphate [1]): 3.07e-05 ± 4.9e-06 s⁻¹
self-cleavage kobs at 160 uM GlcN6P (glucosamine-6-phosphate [2]): < 1e-05 s⁻¹
self-cleavage kobs at 10000 uM GlcN6P (glucosamine-6-phosphate [7]): 2.82e-05 ± 1.3e-05 s⁻¹

A12U G60U
kcat (glucosamine-6-phosphate [1]): 1.13e-05 ± 1.6e-06 s⁻¹
self-cleavage kobs at 40 uM GlcN6P (glucosamine-6-phosphate [6]): < 1e-05 s⁻¹
self-cleavage kobs at 160 uM GlcN6P (glucosamine-6-phosphate [2]): < 1e-05 s⁻¹
self-cleavage kobs at 10000 uM GlcN6P (glucosamine-6-phosphate [7]): < 1e-05 s⁻¹

A14C U65G
kcat (glucosamine-6-phosphate [1]): 0.00175 ± 0.00025 s⁻¹
KM (glucosamine-6-phosphate [5]): 4500 ± 1000 µM
self-cleavage kobs at 640 uM GlcN6P (glucosamine-6-phosphate [3]): 0.000206 ± 5.5e-05 s⁻¹
self-cleavage kobs at 2500 uM GlcN6P (glucosamine-6-phosphate [4]): 0.000717 ± 0.00019 s⁻¹
self-cleavage kobs at 10000 uM GlcN6P (glucosamine-6-phosphate [7]): 0.00117 ± 0.00024 s⁻¹

U47G U65C
kcat (glucosamine-6-phosphate [1]): 0.000283 ± 6.3e-05 s⁻¹
self-cleavage kobs at 640 uM GlcN6P (glucosamine-6-phosphate [3]): 7.88e-05 ± 2.3e-05 s⁻¹
self-cleavage kobs at 2500 uM GlcN6P (glucosamine-6-phosphate [4]): 0.000316 ± 6.8e-05 s⁻¹
self-cleavage kobs at 10000 uM GlcN6P (glucosamine-6-phosphate [7]): 0.000232 ± 3.5e-05 s⁻¹

U57C C67U
kcat (glucosamine-6-phosphate [1]): 6.51e-05 ± 8.2e-06 s⁻¹
self-cleavage kobs at 640 uM GlcN6P (glucosamine-6-phosphate [3]): 3.88e-05 ± 8.6e-06 s⁻¹
self-cleavage kobs at 2500 uM GlcN6P (glucosamine-6-phosphate [4]): 3.71e-05 ± 7.6e-06 s⁻¹
self-cleavage kobs at 10000 uM GlcN6P (glucosamine-6-phosphate [7]): 6.33e-05 ± 5.1e-06 s⁻¹

G40C A48U
kcat (glucosamine-6-phosphate [1]): 0.000238 ± 7.3e-05 s⁻¹
self-cleavage kobs at 40 uM GlcN6P (glucosamine-6-phosphate [6]): < 1e-05 s⁻¹
self-cleavage kobs at 160 uM GlcN6P (glucosamine-6-phosphate [2]): < 1e-05 s⁻¹
self-cleavage kobs at 10000 uM GlcN6P (glucosamine-6-phosphate [7]): 5.01e-05 ± 8.4e-06 s⁻¹

U55A U65C
kcat (glucosamine-6-phosphate [1]): 0.000613 ± 6.7e-05 s⁻¹
KM (glucosamine-6-phosphate [5]): 1160 ± 230 µM
self-cleavage kobs at 160 uM GlcN6P (glucosamine-6-phosphate [2]): 7.83e-05 ± 1.4e-05 s⁻¹
self-cleavage kobs at 640 uM GlcN6P (glucosamine-6-phosphate [3]): 0.0002 ± 2.9e-05 s⁻¹
self-cleavage kobs at 2500 uM GlcN6P (glucosamine-6-phosphate [4]): 0.000471 ± 6.1e-05 s⁻¹
self-cleavage kobs at 10000 uM GlcN6P (glucosamine-6-phosphate [7]): 0.000505 ± 9.2e-05 s⁻¹

G29A C67A
kcat (glucosamine-6-phosphate [1]): 0.00104 ± 0.00036 s⁻¹
self-cleavage kobs at 40 uM GlcN6P (glucosamine-6-phosphate [6]): 2.96e-05 ± 8.8e-06 s⁻¹
self-cleavage kobs at 160 uM GlcN6P (glucosamine-6-phosphate [2]): 0.000165 ± 3.2e-05 s⁻¹
self-cleavage kobs at 640 uM GlcN6P (glucosamine-6-phosphate [3]): 0.000205 ± 3.9e-05 s⁻¹
self-cleavage kobs at 2500 uM GlcN6P (glucosamine-6-phosphate [4]): 0.0005 ± 9.3e-05 s⁻¹
self-cleavage kobs at 10000 uM GlcN6P (glucosamine-6-phosphate [7]): 0.00099 ± 0.00013 s⁻¹

A12U C58A
kcat (glucosamine-6-phosphate [1]): 0.00172 ± 0.00051 s⁻¹
self-cleavage kobs at 640 uM GlcN6P (glucosamine-6-phosphate [3]): 5.11e-05 ± 1.2e-05 s⁻¹
self-cleavage kobs at 2500 uM GlcN6P (glucosamine-6-phosphate [4]): 0.000149 ± 2.6e-05 s⁻¹
self-cleavage kobs at 10000 uM GlcN6P (glucosamine-6-phosphate [7]): 0.00051 ± 6.1e-05 s⁻¹

G59U C68G
kcat (glucosamine-6-phosphate [1]): 2.57e-05 ± 4.8e-06 s⁻¹
